Experiment [1] concerns the target T1, huIL-17RA-FLAG-polyHis (human, UniProt Q96F46 33-320).
T1 construct: also called IL-17RA-FLAG-pHis; wild-type IL-17RA
Kind of experiment: binning; IL-17RA held by bead mAb H.
Experimental: (§1) The method employed the Bio-Plex Workstation and software (BioRad, Hercules, Calif.), as well as reagents from Luminex® Corp. (Austin, Tex.). […] The mouse-anti-human IgG coating was evaluated and the beads quantified by FACS. Each bead code was separately incubated with 10 ul of anti-IL-17RA antibody for 1 hour at room temperature and then washed. The beads were pooled and then dispensed to a 96-well filter plate (Millipore, Billerica, Mass., product #MSBVN1250). […] The PE-tagged monovalent antibody will detect the presence of the second mAb added to the well, but not the first mAb captured by the monovalent mouse-anti-human IgG antibody. Beads were resuspended in 120u1 PBSAT and at least 100 events/bead code were collected on the Bio-Plex workstation as per the manufacturer's recommended protocol.

The target in experiment [2] is T1, huIL-17RA-FLAG-polyHis. Kind of experiment: binning; IL-17RA held by bead mAb C.
Experimental: as §1
For experiment [3], the target named is T1, huIL-17RA-FLAG-polyHis. Kind of experiment: binning; IL-17RA held by bead mAb P.
Experimental: as §1
Experiment [4] has as its target T1, huIL-17RA-FLAG-polyHis. The experiment can be described thus: binning; IL-17RA held by bead mAb Q.
Experimental: as §1
For experiment [5], the target named is T1, huIL-17RA-FLAG-polyHis. The experiment can be described thus: binning; IL-17RA held by bead mAb E.
Experiment [6] concerns the target T1, huIL-17RA-FLAG-polyHis. The experiment can be described thus: binning; IL-17RA held by bead mAb D.
Experimental: as §1
Experiment [7] has as its target T1, huIL-17RA-FLAG-polyHis. Kind of experiment: binning; IL-17RA held by bead mAb M.
Experimental: (§2) The method employed the Bio-Plex Workstation and software (BioRad, Hercules, Calif.), as well as reagents from Luminex® Corp. (Austin, Tex.). The manufacturers' basic protocols were followed except where noted below (see www.bio-rad.com and www.luminexcorp.com for details). […] The mouse-anti-human IgG coating was evaluated and the beads quantified by FACS. Each bead code was separately incubated with 10 ul of anti-IL-17RA antibody for 1 hour at room temperature and then washed. The beads were pooled and then dispensed to a 96-well filter plate (Millipore, Billerica, Mass., product #MSBVN1250). […] The PE-tagged monovalent antibody will detect the presence of the second mAb added to the well, but not the first mAb captured by the monovalent mouse-anti-human IgG antibody. Beads were resuspended in 120u1 PBSAT and at least 100 events/bead code were collected on the Bio-Plex workstation as per the manufacturer's recommended protocol.
Experiment [8] deals with T1, huIL-17RA-FLAG-polyHis. Kind of experiment: binning; IL-17RA held by bead mAb B.
Experiment [9] has as its target T1, huIL-17RA-FLAG-polyHis. Kind of experiment: binning; IL-17RA held by bead mAb I.
Experiment [10] concerns the target T1, huIL-17RA-FLAG-polyHis. The experiment can be described thus: binning; IL-17RA held by bead mAb K.
Experimental: as §1
For experiment [11], the target named is T1, huIL-17RA-FLAG-polyHis. Kind of experiment: binning; IL-17RA held by bead mAb O.
Experimental: as §1
The target in experiment [12] is T1, huIL-17RA-FLAG-polyHis. The experiment can be described thus: binning; IL-17RA held by bead mAb R.
Experiment [13] has as its target T1, huIL-17RA-FLAG-polyHis. The experiment can be described thus: binning; IL-17RA held by bead mAb F.
Experimental: as §1
Experiment [14] has as its target T1, huIL-17RA-FLAG-polyHis. Kind of experiment: binning; IL-17RA held by bead mAb L.
Experimental: as §1
The target of experiment [15] is T1, huIL-17RA-FLAG-polyHis. Kind of experiment: binning; IL-17RA held by bead mAb N.
For experiment [16], the target named is T1, huIL-17RA-FLAG-polyHis. Kind of experiment: binning; IL-17RA held by bead mAb A.
Experimental: as §1
The target of experiment [17] is T1, huIL-17RA-FLAG-polyHis. The experiment can be described thus: binning; IL-17RA held by bead mAb J.
Experimental: as §2
Experiment [18] addresses T1, huIL-17RA-FLAG-polyHis. The experiment can be described thus: binning; IL-17RA held by bead mAb G.
Experimental: as §1
In experiment [19] the target is T2, human IL-17RA, full-length, on cells (human, UniProt Q96F46 33-866). Kind of experiment: cell-based or functional assay.
Experiment [20] concerns the target T2, human IL-17RA, full-length, on cells. Kind of experiment: cell-based or functional assay. The source holds these as a separate data set.
The target in experiment [21] is T3, cynomolgus IL-17RA, on cells (cynomolgus).
T3 construct: whole, on cells; also called CHO-cynoIL-17RA; cyno IL-17RA+ CHO cells
The experiment can be described thus: FACS competition: non-clonal supernatant inhibiting biotin-huIL-17A (competitor) binding to cyno IL-17RA+ CHO cells.

B1: AMH4/AML4 (antibody, IgG2, V domains shown)
VH: QVQLVESGGGVVQPGRSLRLSCAASGINFSSYGMHWVRQAPGKGLEWVAVIWYDGSNKHYADSVKGRFTISRDNSKNTLYLQMNSLRAEDTAVYYCARDTGVYWGQGTLVTVSS
VL: not shown
notes: human mAb from IgG2 XenoMouse mice; also called AM-4; antibody B
For the molecule B1, the “normalized MFI” value in experiment [1] is 6790; in experiment [2], 150; in [3], 5020; in [4], 8280; in experiment [5], 182; in experiment [6], 213. Moreover, the “normalized MFI” value in experiment [7] came to 1300; in experiment [8], 453; in experiment [9], 3710; in [10] it was 4970; in experiment [11] it was 2640; in experiment [12], 5880. The “normalized MFI” value in [13] is 173; in [14], 1980; in [15] it was 1950; in experiment [16], -326; in experiment [17] it was 1400; in experiment [18], 235.

B2: AMH7/AML7 (antibody, IgG2, V domains shown)
VH: QVQLVQSGAEVKKPGASVKVSCKASGYTLTRYGISWVRQAPGQGLEWMGWISAYNGNTNYAQKLQGRVTMTTDTSTSTAYMELRSLRSDDTAVYYCARRDYDILTGYYNGFDPWGQGTLVTVSS
VL: DIQMTQSPSSLSASVGDRVTITCRASQGIRNDLGWYQQKPGKAPKRLIYAASSLQSGVPSRFSGSGSGTEFTLTISSLQPEDFATYYCLQHKSYPLTFGGGTKVEIK
notes: human mAb from IgG2 XenoMouse mice; also called AM-7; antibody D
As for B2, the “normalized MFI” value worked out at 3180 in experiment [1]; 217 in experiment [2]; 5640 in [3]; 4690 in experiment [4]; 192 in [5]; 207 in experiment [6]. Also, the “normalized MFI” value in [7] was found to be 2980; in experiment [8], 684; in [9] it was 6650; in experiment [10], 8680; in experiment [11], 5540; in experiment [12] it was 3550. Moreover, the “normalized MFI” value was 269 in experiment [13]; 4260 in experiment [14]; 3840 in experiment [15]; -233 in [16]; 3640 in experiment [17]; 318 in [18].

B3: AMH6/AML6 (antibody, IgG2, V domains shown)
VH: QVQLVQSGAEVKKPGASVKVSCKASGYTLTRYGISWVRQAPGQGLEWMGWISAYNGNTNYAQKLQGRVTMTTDTSTSTAYMELRSLRSDDTAVYYCARRDYDILTGYYNGFDPWGQGTLVTVSS
VL: DIQMTQSPSSLSASVGDRVTITCRASQGIRNDLGWYQQKPGKAPKRLIYAASSLQSGVPSRFSGSGSGTEFTLTISSLQPEDFATYYCLQHKSYPLTFGGGTKVEIK
notes: human mAb from IgG2 XenoMouse mice; also called AM-6; antibody E
As for B3, the “normalized MFI” value in [1] was 2540; in experiment [2], 173; in experiment [3] it was 3530; in [4], 2390; in experiment [5], 130; in experiment [6] it was 168. The “normalized MFI” value is 1770 in [7]; 447 in [8]; 4330 in experiment [9]; 5600 in experiment [10]; 3310 in experiment [11]; 1660 in [12]. Besides, the “normalized MFI” value is 152 in experiment [13]; 2660 in [14]; 2410 in experiment [15]; -70.5 in experiment [16]; 2420 in experiment [17]; 334 in experiment [18].

B4: AMH8/AML8 (antibody, IgG2, V domains shown)
VH: QVQLVQSGAEVKKPGASVKVSCKASGNTFTGYGISWVRQAPGQGLEWMGWISAYNGNTNYAQNLQGRVTMTTDTSTSTAYMELRSLRSDDTAVYYCARRDYDILTGYYNGFDPWGQGTLVTVSS
VL: DIQMTQSPSSLSASVGDRVTITCRASQGIRNDLGWYQQKPGKAPKRLIYAASSLQSGVPSRFSGSGSGTEFTLTISSLQPEDFATYYCLQHKSYPLTFGGGTKVEIK
notes: human mAb from IgG2 XenoMouse mice; also called AM-8; antibody C
For the molecule B4, the “normalized MFI” value in [1] worked out at 2950; in [2], 260; in [3], 5960; in experiment [4] it was 5500; in experiment [5], 163; in experiment [6] it was 264. Moreover, the “normalized MFI” value in [7] was 2880; in experiment [8], 816; in experiment [9], 6720; in experiment [10], 8220; in experiment [11] it was 5520; in experiment [12], 3950. Also, the “normalized MFI” value in experiment [13] is 239; in experiment [14] it was 3540; in experiment [15] it was 3630; in experiment [16], -178; in [17] it was 3590; in experiment [18], 346.

B5: AMH10/AML10 (antibody, IgG2, V domains shown)
VH: QVQLQESGPGLVKPSQTLSLTCTVSGGSISSGGYYWSWIRQHPGKGLEWIGYIYFSGSAYYNPSLKSRVAISVDTSKNQFSLKLSSVTAADTAVYYCAREYYDSSGYPDAFDIWGQGTMVTVSS
VL: DIQMTQSPSSVSASVGDRVTITCRASQGIRSWLAWYQQKPGKAPKLLIFAASSLQSGVPSRFSGSGSGTEFTLTISSLQPEDFATYYCQQANNFPRTFGQGTKVEIK
notes: human mAb from IgG2 XenoMouse mice; also called AM-10; antibody F
In the case of B5, the “normalized MFI” value in [1] stood at 3970; in experiment [2], 253; in [3], 1720; in experiment [4] it was 1650; in experiment [5], 175; in experiment [6], 179. In addition, the “normalized MFI” value in experiment [7] was 1020; in experiment [8], 545; in experiment [9] it was 3110; in [10], 4110; in experiment [11], 2630; in [12], 1120. The “normalized MFI” value stood at 187 in experiment [13]; 1720 in experiment [14]; 1510 in [15]; 114 in experiment [16]; 2120 in [17]; 342 in experiment [18].

B6: AMH19/AML19 (antibody, IgG2, V domains shown)
VH: QVQLVQSGAEVKKPGASVKVSCKASGYTLTSYGISWVRQAPGQGLEWMGWISAYSGNTKYAQKFQGRVTMTTDTSTSTAYMELRSLRSDDTAVYYCARRQLALDYWGQGTLVTVSS
VL: EIVMTQSPATLSVSPGERATLSCRASQSISSNLAWYQQKPGQAPRLLIYGASTRATGIPARFSDNGSGTEFTLTISSLQSEDFAVYFCQQYDTWPLTFGGGTKVEIK
Take B6: in [19], the “IL-17A/HFF bioassay IC50, subclone 10” value was 0.22 nM; the “IL-17A/HFF bioassay IC50, subclone 11” value turned out to be 1.1 nM; the “IL-17A/HFF bioassay IC50, subclone 12” value is 0.5 nM. Further, in experiment [20], the “IL-17A/HFF IC50” value is 0.2 nM, the “IL-17A/lung fibroblast IC50” value was 0.22 nM and the “IL-17F/HFF IC50” value came to 0.087 nM.

B7: AMH22/AML22 (antibody, IgG2, V domains shown)
VH: QVQLVQSGAEVKKPGASVKVSCKASGYTFTRYGISWVRQAPGQGLEWMGWISAYSGNTNYAQKLQGRVTMTTDTSTSTAYMELRSLRSDDTAVYYCARRQLYFDYWGQGTLVTVSS
VL: EIVMTQSPATLSVSPGERVTLSCRASQSVSSNLAWFQQKPGQAPRPLIYDASTRAAGIPARFSGSGSGTDFTLTISSLQSEDFAVYYCQQYDNWPLTFGGGTKVEIK
notes: human mAb from IgG2 XenoMouse mice; also called AM-22; antibody I
Molecule B7 registered an MFI in experiment [21] of 18.

The values are drawn from US20120251547A1 (Amgen, published 2012).
